Laboratory results as given in patent publication US7888090B2, “Mutants of O6-alkylguanine-DNA alkyltransferase” (Ecole Polytechnique Federale de Lausanne, priority 2004, dated 2011).

Experiments:
[1] = Solubility in vitro after overnight incubation; assay type: physicochemical; details: compared to wild type AGT
Procedure: The in vitro solubility of wild type AGT and the AGT mutant is measured by determining the amount of protein that remains in the soluble fraction after overnight incubation of purified samples at 4° C. or up to 37° C. at one or several concentrations established in a suitable buffer (e.g. 100 mM NaCl, 20 mM Tris, pH 8.0, 20% glycerol, 1 mM DTT).
The solubility of AGTM or an AGTM fusion protein in vitro is measured by determining the amount of protein that remains in the soluble fraction after overnight incubation of purified samples at 4 or up to 37° C. at one or several concentrations established in a suitable buffer (e.g. 100 mM NaCl, 20 mM Tris, pH 8.0, 20% Glycerol), and it is compared to that of wild type AGT or to known AGT mutants such as “PGEG-hAGT” (Juillerat et al., Chem Biol 10:313-317, 2003).

[2] = Reactivity towards N^9-modified O^6-benzylguanine derivatives (preblocking, BG-Cy3 assay); assay type: biochemical; details: 100 µM BG, 15 min
Procedure: FIG. 3: Reactivity of AGT mutants with N^9-modified BG derivatives. 10 µM AGTM (grey bars) or PGEG-hAGT (black bars) were preblocked with 100 µM N^9-modified BG derivatives (see list below), and subsequently labeled with 20 µM BG-Cy3. After 1 h reaction time, fluorescence intensity (FI) indicated in arbitrary units [a.u.] at 595 nm is measured. The black bold line is set at the reading for condition 1 corresponding to background fluorescence of the fluorophore not attached to protein. Values above this line indicate slow or incomplete reaction with N^9-modified BG-derivative. • 1 Fluorescence of BG-Cy3 without protein; background fluorescence. • 2 Reaction with BG-Cy3; no preblocking, positive control. • 3 Reaction with BG-Cy3, preblocked with 100 µM BG. • 4 Reaction with BG-Cy3, preblocked with 100 µM N^9-isobutyl-O^6-benzylguanine. • 5 Reaction with BG-Cy3, preblocked with 100 µM N^9-propyl-O^6-benzylguanine. • 6 Reaction with BG-Cy3, preblocked with 100 µM N^9-cyanomethyl-O^6-benzylguanine.
Reactivity of AGT towards N^9-modified O^6-benzylguanine derivatives: The experiment is based on the BG-Cy3 assay. Upon reaction of AGT with BG-Cy3, an increase of fluorescence emission intensity of Cy3 by a factor 2-3 can be observed. […]

B1: AGTM: AGT mutant Cys62Ala, Gln115Ser, Gln116His, Lys125Ala, Ala127Thr, Arg128Ala, Gly131Lys, Gly132Thr, Met134Leu, Arg135Ser, Cys150Asn, Ser151Ile, Ser152Asn, Asn157Gly, Ser159Glu, truncated after … (protein, UniProt P16455 1-207, looked up, variant C62A Q115S Q116H K125A A127T R128A G131K G132T M134L R135S C150N S151I S152N N157G S159E del183-207)
Methylated-DNA--protein-cystei …: MDKDCEMKRTTLDSPLGKLELSGCEQGLHEIKLLGKGTSAADAVEVPAPAAVLGGPEPLMQATAWLNAYFHQPEAIEEFPVPALHHPVFQQESFTRQVLWKLLKVVKFGEVISYSHLAALAGNPAATAAVKTALSGNPVPILIPCHRVVNINGAVGGYEGGLAVKEWLLAHEGHRLGKPGLG
modifications: His tag
In the case of B1, the solubility in vitro [1] is reported as “at least fourfold increased” and the “AGT remaining active after preblocking with BG” value [2] is reported as 5%.
